{
  "source": "patent US10093706",
  "about": "“Dominant positive hnRNP-E1 polypeptide compositions and methods” (Indiana University Research and Technology Corporation)",
  "key": {"hnRNP-E1(C293S)": {"target": "hnRNP-E1(C293S) (Homo sapiens, UniProt Q15365 SEQ:1-356)", "sequence (Q15365 whole entry A205V/C293S, the tested form may be a part)": "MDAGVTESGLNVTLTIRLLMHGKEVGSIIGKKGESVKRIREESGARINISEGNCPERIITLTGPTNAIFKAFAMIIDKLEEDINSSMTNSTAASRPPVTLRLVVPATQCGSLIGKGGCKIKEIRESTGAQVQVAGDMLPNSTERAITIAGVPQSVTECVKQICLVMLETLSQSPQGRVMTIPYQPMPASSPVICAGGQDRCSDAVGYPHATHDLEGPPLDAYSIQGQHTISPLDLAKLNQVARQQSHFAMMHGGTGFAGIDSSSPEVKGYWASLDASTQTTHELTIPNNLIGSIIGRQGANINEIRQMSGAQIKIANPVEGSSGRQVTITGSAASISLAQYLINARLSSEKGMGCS", "test": "no L-homocysteine; Scatchard", "conditions": "tags: GST fusion (pGEX-4T-1, E. coli BL21); label: 35S", "experimental": "(§1) Specific binding was determined by subtracting values of non-specific binding with GST from those of total binding with GST-hnRNP-E1; (however, in Table 1 and FIG. 6G, non-specific binding using bovine serum albumin (BSA) was subtracted from total binding to GST-hnRNP-E1 to determine specific binding). The K_D was calculated from a Scatchard plot using GraphPad Prism 6 from GraphPad Software (San Diego, Calif.), as previously described in the art."}, "hnRNP-E1(G292A)": {"target": "hnRNP-E1(G292A) (Homo sapiens, UniProt Q15365 SEQ:1-356, G292A)", "sequence (Q15365 whole entry A205V/G292A, the tested form may be a part)": "as the sequence (Q15365 whole entry A205V/C293S, the tested form may be a part) above, with G292A, S293C counted along it", "test": "no L-homocysteine; Scatchard; no gel-shift signal in this condition (FIG. 1B)", "conditions": "tags: GST fusion (pGEX-4T-1, E. coli BL21); label: 35S", "experimental": "as §1"}, "[1]": {"target": "hnRNP-E1 (PCBP1) wild-type (Homo sapiens, UniProt Q15365 SEQ:1-356)", "sequence (Q15365 whole entry A205V, the tested form may be a part)": "as the sequence (Q15365 whole entry A205V/C293S, the tested form may be a part) above, with S293C counted along it", "test": "EMSA; 15 uM L-homocysteine; complete quenching of signal", "conditions": "tags: GST fusion (pGEX-4T-1, E. coli BL21)"}},
  "data": [
    {"binder": "CUCCCGCCCGCUCCCGCUCGCUCCC (ssRNA)", "note": "[25-nt hnRNP-E1 mRNA 5'-UTR cis-element]", "values": [
      {"measurement": "Kd", "setting": "hnRNP-E1(C293S)", "value": 0.39, "unit": "nM"},
      {"measurement": "Kd", "setting": "hnRNP-E1(G292A)", "value": 2.02, "unit": "nM"}
    ]},
    {"binder": "CUUCCGCCCGCUCCCGCUCGCUUCC (ssRNA)", "note": "[25-nt cis-element mutation 6]", "values": [
      {"measurement": "binding result", "setting": "[1]", "value": "no binding"}
    ]}
  ]
}
